In publication PMC12259950 one finds ELISA signal intensity, fold lower than the positive control data, which are given here for 1 molecule.

The test addresses 4-1BB receptor (human) (UniProt Q07011). Description: ELISA; antigen (4-1BB 0.5 µg/mL in carbonate buffer; BSA or S100P for cross-reactivity) adsorbed on the plate, 37 °C 1 h; blocked with 1% milk powder; culture fluid with VHH mixed 1:1 with 2% milk powder, 1 h 37 °C; detected by 9E10 anti-myc and an HRP conjugate, TMB, 450 nm; 2 technical ….
UniProt Q07011, sequence (Q07011 24-255): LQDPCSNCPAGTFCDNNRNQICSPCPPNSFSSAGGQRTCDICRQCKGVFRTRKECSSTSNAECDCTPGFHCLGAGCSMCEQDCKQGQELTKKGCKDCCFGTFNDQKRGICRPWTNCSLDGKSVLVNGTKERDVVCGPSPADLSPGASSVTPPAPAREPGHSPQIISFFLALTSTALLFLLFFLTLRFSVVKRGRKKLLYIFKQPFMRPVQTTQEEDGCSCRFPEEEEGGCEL

B1: VHH_11 (VHH)
VHH: QVQLVESGGGLVQPGGSLRLSCAASGYSYYYYSMGWFRQAPGQGTEFVAAISSYYYSSYYADSVKGRFTISRDNSKNTLYLQMNSLRAEDTAVYYCAASYYSGSYYSGFDYWGQGTQVTVS
In turn, B1 showed an ELISA signal intensity, fold lower than the positive control of 10 fold.
